# What was measured:
# Assay type in all cases: cell-based
# yeast [1] = test: Example 4: LSF ethanol fermentation with lipases, purified lipases, ferric sulfate; details: Candida antarctica lipase 400 LU/g DS, purified lipases 100 LU/g DS
# Protocol: Example 4 was conducted on dry milled corn according to a simultaneous liquefaction5 saccharification-fermentation (LSF) protocol. The experiment was carried out on ground yellow corn using a glucoamylase and alpha amylase for fermenting ethanol with and without lipase, as described in examples 2 and 3. Fermentations were carried out at pH=5.0, 32° C. for several hours. In addition to Candida antarctica lipase and inactivated Candida antarctica lipase, feric sulfate and purified lipases from Candida cylindracea lipase and Candida antarctica lipase A, were also compared. Four times less of the purified lipase was used.
# yeast [2] = test: Example 14: LSF ethanol fermentation with and without laccase; details: additive with glucoamylase: 0.1 M NaCl & 0.7 GAU/g DS, NZ 525 0.5% DS & 0.9 GAU/g DS, laccase 0.2% DS & 1.0 GAU/g DS
# Protocol: The addition of a laccase was tested under anaerobic fermentation conditions analogous to ethanol fermenting experiments. The experiment was conducted on dry milled yellow corn according to a simultaneous liquefaction-saccharification-fermentation (LSF) protocol. The experiment was carried out using a glucoamylase (Spirizyme plus, available from Novozymes A/S) for fermenting ethanol, with and without laccase. Fermentations were carried out at pH=5.0, 32° C. for several hour. The process was monitored with time and analyzed for CO2 weight loss, percent ethanol produced and theoretical conversion of the starch.
# Ethanol Red yeast [3] = test: Example 10: Lipolase 100 T versus purified Lipolase
# Protocol: In this example, Lipolase 100 T and purified Lipolase (both available from Novozymes A/S) were compared. The Experimental conditions were as follows: Ethanol Red yeast, 36% DS, 1.5 GAU/g DS Spirizyme Fuel, 0.8 AFAU/g DS SP 288. Yeast was propagated with maltodextrin and protease. Fermentation was carried out in 25-ml fermentors at 32.2° C. without mixing for 72 h. A control was run as described, without the addition of lipase.
# yeast [4] = test: Example 2: LSF ethanol fermentation of ground yellow corn with esterases; details: esterase 200 U/g DS
# Protocol: Example 2 was conducted on dry milled ground yellow corn according to a simultaneous liquefaction-saccharification-fermentation (LSF) protocol. The experiment was carried out using a glucoamylase (Spirizyme Plus, available from Novozymes A/S) in an amount of 0.8 GAU/g DS and a fungal alpha amylase (SP288, available from Novozymes A/S) in an amount of 2.6 AFAU/g DS for fermenting ethanol along with the addition of:
# (A) lipase (LIPOLASE, available from Novozymes A/S),
# (B) Candida antarctica lipase,
# (C) cutinase (JC 492, available from Novozymes A/S)
# (D) phospholipase (LECITASE available from Novozymes A/S),
# (E) inactivated Candida antarctica lipase (inactivated by boiling for three hours), and
# (F) a control (glucoamylase and amylase without esterase addition).
# The esterases were added in an amount corresponding to 200 U/g DS. Fermentations were carried out at pH=5.0, 32° C. for several hours. The process was monitored with time and ana20 lyzed for CO2 weight loss, percent ethanol produced and theoretical conversion of the starch.
# Ethanol Red yeast [5] = test: Example 8: as Example 6 with protease in the fermentation medium
# Protocol: This experiment was carried out using the same experimental conditions and enzyme concentrations described in Example 6, with the exception that protease (Novozyme 50006, 0.007% DS) was also added to the fermentation medium with an increased sample volume.
# To eliminate the possibility that a substance in the CALB formulation was contributing to the effect obtained, inactivated CALB was also used. A control was prepared by inactivating CALB by boiling for 3 hours. Upon completion of boiling, the volume was adjusted to the initial value with DI water, and sample was spun down at 3,000 rpm for 20 min. The liquid layer was forced through the 0.45-μm filter. The enzyme was thereby completely inactivated.
molecule,measurement,setting,value
O=S(=O)([O-])[O-].O=S(=O)([O-])[O-].O=S(=O)([O-])[O-].[Fe+3].[Fe+3] [Fe2(SO4)3],"Calculated ethanol, % v/v",yeast [1]; 24 h,11.58 ± 0.13 % v/v
same,"Efficiency, %",yeast [1]; 24 h,52.79 ± 0.67%
same,"Calculated ethanol, % v/v",yeast [1]; 48 h,16.87 ± 0.43 % v/v
same,"Efficiency, %",yeast [1]; 48 h,81.84 ± 2.57%
same,"Calculated ethanol, % v/v",yeast [1]; 72 h,18.82 ± 0.91 % v/v
same,"Efficiency, %",yeast [1]; 72 h,91.00 ± 2.45%
[Cl-].[Na+] [NaCl],"HPLC ethanol, % v/v",yeast [2]; 7 h,1.88 % v/v
same,"HPLC ethanol, % v/v",yeast [2]; 23 h,7.91 % v/v
same,"HPLC ethanol, % v/v",yeast [2]; 29 h,8.78 % v/v
same,"HPLC ethanol, % v/v",yeast [2]; 47 h,10.30 % v/v
same,"HPLC ethanol, % v/v",yeast [2]; 55 h,10.94 % v/v
same,"HPLC ethanol, % v/v",yeast [2]; 119 h,14.61 % v/v
"Lipolase (purified): purified Lipolase, available from Novozymes A/S (protein, UniProt O59952 23-291, looked up) Lipase: EVSQDLFNQFNLFAQYSAAAYCGKNNDAPAGTNITCTGNACPEVEKADATFLYSFEDSGVGDVTGFLALDNTNKLIVLSFRGSRSIENWIGNLNFDLKEINDICSGCRGHDGFTSSWRSVADTLRQKVEDAVREHPDYRVVFTGHSLGGALATVAGADLRGNGYDIDVFSYGAPRVGNRAFAEFLTVQTGGTLYRITHTNDIVPRLPPREFGYSHSSPEYWIKSGTLVPVTRNDIVKIEGIDATGGNNQPNIPDIPAHLWYFGLIGTCL","Change, % v/v vs. control (efficiency)",Ethanol Red yeast [3]; 1 LU/g DS,+1.00 % v/v
same,"Change, % v/v vs. control (ethanol)",Ethanol Red yeast [3]; 1 LU/g DS,+0.31 % v/v
same,"Efficiency, %",Ethanol Red yeast [3]; 1 LU/g DS,84.00%
same,"Ethanol, % v/v in beer",Ethanol Red yeast [3]; 1 LU/g DS,18.41 % v/v
same,"Change, % v/v vs. control (efficiency)",Ethanol Red yeast [3]; 10 LU/g DS,+0.49 % v/v
same,"Change, % v/v vs. control (ethanol)",Ethanol Red yeast [3]; 10 LU/g DS,+0.52 % v/v
same,"Efficiency, %",Ethanol Red yeast [3]; 10 LU/g DS,83.49%
same,"Ethanol, % v/v in beer",Ethanol Red yeast [3]; 10 LU/g DS,18.62 % v/v
same,"Change, % v/v vs. control (efficiency)",Ethanol Red yeast [3]; 100 LU/g DS,+0.57 % v/v
same,"Change, % v/v vs. control (ethanol)",Ethanol Red yeast [3]; 100 LU/g DS,+0.14 % v/v
same,"Efficiency, %",Ethanol Red yeast [3]; 100 LU/g DS,83.57%
same,"Ethanol, % v/v in beer",Ethanol Red yeast [3]; 100 LU/g DS,18.24 % v/v
"Candida antarctica lipase inactive: Candida antarctica lipase inactivated by boiling for three hours (protein, UniProt P41365 26-342, looked up, heat-inactivated by boiling) Lipase B: LPSGSDPAFSQPKSVLDAGLTCQGASPSSVSKPILLVPGTGTTGPQSFDSNWIPLSTQLGYTPCWISPPPFMLNDTQVNTEYMVNAITALYAGSGNNKLPVLTWSQGGLVAQWGLTFFPSIRSKVDRLMAFAPDYKGTVLAGPLDALAVSAPSVWQQTTGSALTTALRNAGGLTQIVPTTNLYSATDEIVQPQVSNSPLDSSYLFNGKNVQAQAVCGPLFVIDHAGSLTSQFSYVVGRSALRSTTGQARSADYGITDCNPLPANDLTPEQKVAAAALLAPAAAAIVAGPKQNCEPDLMPYARPFAVGKRTCSGIVTP","Calculated ethanol, % v/v",yeast [4]; 24 h,11.43 ± 0.08 % v/v
same,"Efficiency, %",yeast [4]; 24 h,52.88 ± 0.40%
same,"Calculated ethanol, % v/v",yeast [4]; 48 h,16.88 ± 0.15 % v/v
same,"Efficiency, %",yeast [4]; 48 h,83.18 ± 0.89%
same,"Efficiency, %",yeast [4]; 72 h,90.89 ± 0.25%
same,"HPLC ethanol, % v/v",yeast [4]; 72 h,19.49 ± 0.04 % v/v
same,"Calculated ethanol, % v/v",yeast [1]; 24 h,10.59 ± 0.16 % v/v
same,"Efficiency, %",yeast [1]; 24 h,49.33 ± 0.85%
same,"Calculated ethanol, % v/v",yeast [1]; 48 h,16.91 ± 0.30 % v/v
same,"Efficiency, %",yeast [1]; 48 h,84.73 ± 1.77%
same,"Calculated ethanol, % v/v",yeast [1]; 72 h,18.65 ± 0.40 % v/v
same,"Efficiency, %",yeast [1]; 72 h,95.49 ± 2.53%
same,effect on ethanol yield and efficiency,Ethanol Red yeast [5],no significant difference between ethanol yield of control samples and ethanol yield of samples treated with inactivated CALB

# Source: patent publication US20040063184A1, “Fermentation processes and compositions” (priority 2002, published 2004)
